The values that follow come from PMC11006472.

This assay addresses human ER membrane protein complex (EMC) with EMC2-3xFlag and EMC5-Twin-Strep (human (endogenous in Expi293F) | human) (UniProt Q8N766). Nature of the assay: cryo-EM structure; VDAC1-bound class of the purified human EMC sample in digitonin (complex co-purified from cells), single-particle cryo-EM, 3.32 Å.
Sequence of UniProt Q8N766 (Q8N766 whole entry, looked up, one chain of several): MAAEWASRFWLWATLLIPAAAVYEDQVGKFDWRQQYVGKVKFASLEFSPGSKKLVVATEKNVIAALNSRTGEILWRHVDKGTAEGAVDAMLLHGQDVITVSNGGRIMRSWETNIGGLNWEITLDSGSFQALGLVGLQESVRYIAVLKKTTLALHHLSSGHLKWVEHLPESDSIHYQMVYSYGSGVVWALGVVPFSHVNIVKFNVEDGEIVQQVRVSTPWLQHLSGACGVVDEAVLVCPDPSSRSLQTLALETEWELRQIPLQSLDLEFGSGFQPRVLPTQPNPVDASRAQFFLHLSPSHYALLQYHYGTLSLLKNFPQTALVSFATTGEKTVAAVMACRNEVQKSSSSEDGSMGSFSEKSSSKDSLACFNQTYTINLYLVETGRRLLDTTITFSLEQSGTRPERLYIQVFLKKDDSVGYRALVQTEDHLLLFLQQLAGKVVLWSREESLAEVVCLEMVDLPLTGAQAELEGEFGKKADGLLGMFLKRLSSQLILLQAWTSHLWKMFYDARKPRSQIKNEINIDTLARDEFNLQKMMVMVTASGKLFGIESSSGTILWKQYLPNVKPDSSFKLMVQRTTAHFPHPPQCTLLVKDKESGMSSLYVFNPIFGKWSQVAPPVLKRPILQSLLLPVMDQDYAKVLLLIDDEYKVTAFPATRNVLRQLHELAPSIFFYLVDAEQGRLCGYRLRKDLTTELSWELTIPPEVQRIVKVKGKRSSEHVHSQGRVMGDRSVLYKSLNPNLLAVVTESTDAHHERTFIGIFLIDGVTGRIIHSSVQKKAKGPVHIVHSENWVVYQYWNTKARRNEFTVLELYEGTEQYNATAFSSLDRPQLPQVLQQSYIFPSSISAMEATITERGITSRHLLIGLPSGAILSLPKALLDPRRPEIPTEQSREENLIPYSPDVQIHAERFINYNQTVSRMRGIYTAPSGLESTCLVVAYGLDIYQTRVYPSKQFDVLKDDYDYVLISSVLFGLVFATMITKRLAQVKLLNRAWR

Broadly, the stoichiometry N is the number of molecules, sites or subunits per partner or assembly. Turning to “voltage-dependent anion channel 1 (VDAC1), endogenous (from UniProt P21796 1-283) (natural protein)”, the stoichiometry N was 1.
